Measurements published in the DeepSol protein solubility set.

experiment: soluble on expression in E. coli; label from the status in PepcDB or PDB records

Row | Sequence | soluble on expression in E. coli
1 | MDTTNQSEDIKPCDSDLMESILMFDEPISDILAHNKLWISHARTRSNFFPQEGRHISNQHTEAATSLKMWMLSKNLVVIVKRKDDIFPCKILTRNPENLFVARFLESGKEKHIQVEYSDIIMTRSELEKALPLCQHLIPARNWDDFYIIRDFEKATPYFEQGLSALVKPGQQFELQLEDAPDFYVMATVVKNYRGFLLVEYQNVSCVQKKTMPVFLFHFLMLFQFKRWIHMLSPYCHEIGWGKNEKQEYLKRGPYNRHMNVDLVAGLVKQSTNQKLGAVPEIVFRNNCPVPHRIPEYSACVYLDLDQKRFYFAHKVTTKTCRNNRHFFNISIGKNLVTSKQNNRPYEFHVYHPRILPYSVAKRMEVQIILPPDVKLLPDESNLDGYLRTYCNPCDKHKTSDRVQPSPKIAKKKNGPLLLDDTPDAMFRSRPLLGDNIGAHKEWTNFMNHIPDYKRKDLLKSMDTLKFCEIFRPTPTGALQLTAAEVTGQQECMLRLKVSGEDEPVYIHNADPHLYHLGACLDMELAINFHGEFFDEKPLKKNKNANNGFSSF | not soluble
2 | MSLNDSRLLPVGSSPLEVAAARACAEIERTPVNIRALWNPDTCPENLLPWLAWAFSVDRWDENWPEGTKRAVIRDAYFIHCHKGTIGAIRRVVEPLGYVINVTEWWESSDPPGTFRLDIGVLESGITEEMYFEMERLIADAKPASRHLTGLNIVQDIPGYLYTGGVSCDGDIITVYPGEGHHHHHH | not soluble
3 | MGSDKIHHHHHHDPVSDITDLNYWKTPEQFDSFVFGLHSRFRSHSWNMFLLGEARSDVFGGIPFGGEATQGMERFPYNTLNAENPGISGFGDLYQNINQMNLFISRTLHTDVLTESARNYYLGQVYGLRAYYMYQLYRSWGDVVFTEEPSLGFEVGKLAKAATPAAEIFEQVKKDIESSLSYFGSDYTIKEKKSLWSKAATLMLKADVYLWSAHRDGGEGDARTAKNALVDIQNNISRSNLDLMDTYQGVFAYDNKGNKEIIFTIHNELFEYNLWNGNNDLFPQADYLGKFYNADGTLINTSVENNFGIMRLMVKLENFKKFLPGDTRRDVTLKDVYNKVENGKLELVGVYPHKYWGVMNGSTRVRCDDYPIYRYSDLLLMLAEAKVLLGEDPATEINRVRRRAFGDAYDASTVGFPNQEVDKRPADAVLQERLFEFMLEGKRWYDLRRFGDSYVLDYTPAEPARLLWPINQGALTNNPLLKQTVGY | not soluble
4 | MAHHHHHHMQSVLPYTTNPAQIGSIEKLKLINPSSAAATGPYVNVRDPKLVVGGLLHNWDAEAAHALLNAPKSVQTWDLSWTEDETNWEERVHRCTYPEEVEDLLPAKWIGYRVQSDVDETLARVCKLCTALVDRLVSLSQGNNANVSTAKWRQRQALYDRLGAVMELLEASVGEAIPILKLKDPEFIQNCWRQMQDDERVEIISVLGTKEYD | soluble
5 | MGIYQWRDKKKPSGGKRRYYYKVKRKYAAGRPPTYTTLSAAEEEERKPVRARGGSYKIKAKKVAFAVVSNPKTGEARKARILRIVETPAHREYARRGIIVKGAVIDTTLGRAVVTSRPGQEGVVNAVLLEEQGQKQLEHHHHHH | soluble
6 | MSLKNQWNNILSIGEKVLNGEKITADEALTLSKSNGSDIFLLCSFANKLREKFNGNHVDLCSVINAKSGNCSEDCAFCAQSAHHKANVSCYPLLNEDKILEMAKQREAYGARHCDIATSGLGYTGDEKDFQTILKAFKKMKENTNLKLCACLGTLTEKAMNSLAAVGVERYNHNLETAKSFYKNIVSTHGYDERIKTINYAKNAKMEVCSGMIVGLGETMEQRIEHALLLRDLNVDAVPVNILNPVKGTKLENAKPLSPMEIIKTFAIIRFILPDKIIRYAGGREKNLRSLQPLGFLSGLNGMLIGNYLTTNGQSVNDDFNMLKDLELEYEGHHHHHH | soluble
7 | SPEAQTEIEESILEEYAIWRKNTPFLYDLVVTKPLEWPSLTCQWLPEKREFPNSDYYLEKIILGTQTDGNAQNYLMLAQVRLPNEKAEVDGSAYNNKENGSYGGFGMGQQGKIDIVQRIKHDGDVNRARYMPQNPQIIATKTVSGEVHIFDISKHPLKPPANNVASPQLRLRSPQKEGFGLCWNPNQEGRIISAGEDRRIFLWDILGGGDKEEYVNPLNVYGGHTDVVGDVSFHAHSQYLFGSVGDDRKIMLWDTRSSDVEHPSQEVEAHKDVINCLAFNPFSEHVLITGSADTTLCLWDLRSLNQPLHVFESHPGEILQALWSPFHETLFASCGKDRQVRIWDLSRIGEEQEPEDAEDGPPELLFVHGGHTSTVQELSWNPNEPFVIASVADDNILQLWSMAQHIYEDTDDESMTTELKEEDLE | soluble
8 | MNNGKLFLVGTPIGNLKDITLRALETLQNCDVIAAEDTRQSLKLLNHFDIKKPLISYHKFNENNRSSELMDMVREGKKVALVTDAGMPGISDPGSVIVEKFIENNLEFEVIPG | not soluble
9 | MENDMKSLSAAAQACVKKMRDAKVNEACIRTFIAQHVMVSKGETGSIPDSAIMPVDSLDALDSLTIECDNAVLQSTVVLKLNGGLGTGMGLCDAKTLLEVKDGKTFLDFTALQVQYLRQHCSEHLRFMLMDSFNTSASTKSFLKARYPWLYQVFDSEVELMQNQVPKILQDTLEPAAWAENPAYEWAPPGHGDIYTALYGSGKLQELVEQGYRYMFVSNGDNLGATIDKRVLAYMEKEKIDFLMEVCRRTESDKKGGHLARQTVYVKGKDGQPDAEKRVLLLRESAQCPKADMESFQDINKYSFFNTNNLWIRLPVLLETMQEHGGTLPLPVIRNEKTVDSSNSASPKVYQLETAMGAAIAMFESASAIVVPRSRFAPVKTCADLLALRSDAYVVTDDFRLVLDDRCHGHPPVVDLDSAHYKMMNGFEKLVQHGVPSLVECKRVTVKGLVQFGAGNVLTGTVTIENTDSASAFVIPDGAKLNDTTASPQQSTNKMRPLEHHHHHH | soluble
10 | MGSDKIHHHHHHMPQRIDLRVRPEEATDEQILRKHVARQTKTDPTDIHTIIIRRRSIDARQRQVYVNLGLEVYSGSESPVEDDFSDLIYPSVEGKTAVIVVGAGPAGLFAALRLIELGLRPIILERGKSVHERRADIARIPKEGHVDPESNYGFGEGGAGAFSDGKLYTRSKKRGDITKILRILCKHGAQPSILIDAHPHIGTDRLPKVIENIRHQILAAGGEVHFSCRMESLIIHNGQVVGARDNKGREYCGPVILATGHSARDIYRYLHRNGIRMEAKGTAVGVRLEHPQALIDQLRYHNPKGRGLYLPPAEYTYTAQVEGRGVYSFCMCPGGFVVPASTAPDQTVVNGMSPANRGSRWANSGLVVEIHPEDVLSTPTNDPLALMNWIERLEGESWTQARCSLRAPAQRMTDFLSGRSSVDLPKSSYNMGLTPSRLDEWLPSFITKRIQKAFQLFDRQTKGFLTAEAQLIALESRTSSPVRILRESTSCEHPLLRGLFPCGEGAGYAGGIVSAAMDGERCAEGVASYLG | not soluble
11 | MTPDFQIVTQRLQLRLITADEAEELVQCIRQSQTLHQWVDWCHALFSQQEAEQFIQATRLNWVKAEAYGFGVFERQTQTLVGMVAINEFYHTFNMASLGYWIGDRYQRQGYGKEALTALILFCFERLELTRLEIVCDPENVPSQALALRCGANREQLAPNRFLYAGEPKAGIVFSLIP | soluble
12 | AVFNYALMPSLQQFNKILAHELNLVLDEDGPLKSDAPLRRQLLERLGVTVHSINSEKAVEFNHAMSIDLMSEEMTQELGSPTEVRLLLGSESYILWMHIEKLPNSIIRIPLSELQEEDFAPLFR | not soluble
13 | MGSDKIHHHHHHGQNQNKIQEAMANYDYETAVELINKEPPTIPLLMQKAKALKGIGSNAEALRSIRQVIAEDSTNQQAHIEAAECCKAMAKYNDALDYYRKAISLNPKNKYARLQFINLLCNTKNYAEAFGESSMMSETDSSAVVLHLQAQSLEGMQQILPAIGCYEVIQDKYPDDYLAAAKLGNLNIVAGYPEYAIQATERYRERDSTNLIVNQQNALAYCHAEQYPTAIKRYEKLCQQGDSSTQTLYYLGVSYYADEYYYEAHACFSKLQKEMEENPNLLYYLGRCCAKTSWKKEGIEHLEKAIELTIPKDSTMIRLYKGLVDCCKLAQDTPKQIQALRELYKYDKTNHKLLYDIAWNYSYQLKDNKSAERYLQAFLKTRKANARKEEPVSEKGELVLGLENYYNAAENWLKDLQKEKFFKEGIPLESQKQ | not soluble
14 | MKTPTFGKREETLTYQTRYAAYIIVSKPENNTMVLVQAPNGAYFLPGGEIEGTETKEEAIHREVLEELGISVEIGCYLGEADEYFYSNHRQTAYYNPGYFYVANTWRQLSEPLERTNTLHWVAPEEAVRLLKRGSHRWAVEKWLAAASLEHHHHHH | soluble
15 | MQGAQTSEDNLGSQSQPGPCGYIYFYPLATYPLREVATLGTGYAGHRCLTVPLLCGITVEPGFSINVKALHRRPDPNCGLLRATSYHRDIYVFHNAHMVPPIFEGPGLEALCGETREVFGYDAYSALPRESSKPGDFFPEGLDPSAYLGAVAITEAFKERLYSGNLVAIPSLKQEVAVGQSASVRVPLYDKEVFPEGVPQLRQFYNSDLSRCMHEALYTGLAQALRVRRVGKLVELLEKQSLQDQAKVAKVAPLKEFPASTISHPDSGALMIVDSAACELAVSYAPAMLEASHETPASLNYDSWPLFADCEGPEARVAALHRYNASLAPHVSTQIFATNSVLYVSGVSKSTGQGKESLFNSFYMTHGLGTLQEGTWDPCRRPCFSGWGGPDVTGTNGPGNYAVEHLVYAASFSPNLLARYAYYLQFCQGQKSSLTPVPETGSYVAGAAASPMCSLCEGRAPAVCLNTLFFRLRDRFPPVMSTQRRDPYVISGASGSYNETDFLGNFLNFIDKEDDGQRPDDEPRYTYWQLNQNLLERLSRLGIDAEGKLEKEPHGPRDFVKMFKDVDAAVDAEVVQFMNSMAKNNITYKDLVKSCYHVMQYSCNPFAQPACPIFTQLFYRSLLTILQDISLPICMCYENDNPGLGQSPPEWLKGHYQTLCTNFRSLAIDKGVLTAKEAKVVHGEPTCDLPDLDAALQGRVYGRRLPVRMSKVLMLCPRNIKIKNRVVFTGENAALQNSFIKSTTRRENYIINGPYMKFLNTYHKTLFPDTKLSSLYLWHNFSRRRSVPVPSGASAEEYSDLALFVDGGSRAHEESNVIDVVPGNLVTYAKQRLNNAILKACGQTQFYISLIQGLVPRTQSVPARDYPHVLGTRAVESAAAYAEATSSLTATTVVCAATDCLSQVCKARPVVTLPVTINKYTGVNGNNQIFQAGNLGYFMGRGVDRNLLQAPGAGLRKQAGGSSMRKKFVFATPTLGLTVKRRTQAATTYEIENIRAGLEAIISQKQEEDCVFDVVCNLVDAMGEACASLTRDDAEYLLGRFSVLADSVLETLATIASSGIEWTAEAARDFLEGVWGGPGAAQDNFISVAEPVSTASQASAGLLLGGGGQGSGGRRKRRLATVLPGLEV | soluble
16 | SREEFEQILQERNELKAKVFLLKEELAYFQRELLTDHRVPSLLLEAMKVAVRKQRKKIKAKMLGT | soluble
17 | MLRHNVPVRRDLDQIAANNGFDFHIIDNEIYWDESRAYRFTLRQIEEQIEKPTAELHQMCLEVVDRAVKDEEILTQLAIPPLYWDVIAESWRARDPSLYGRMDFAWCGNAPVKLLEYNADTPTSLYESAYFQWLWLEDARRSGIIPRDADQYNAIQERLISRFSELYSRELFYFCCCQDTDEDRSTVLYLQDCAQQAGQESRFIYIEDLGLGVGGVLTDLDDNVIQRAFKLYPLEWMMRDDNGPLLRKRREQWVEPLWKSILSNKGLMPLLWRFFPGHPNLLASWFEGEKSQIAAGESYVRKPIYSREGGNVTIFDGQNNVVDHADGDYADEPMIYQAFQPLPRFGDSYTLIGSWIVDDEACGMGIREDNTLITKDTSRFVPHYIAG | not soluble
